Data from US20070224188A1.

Biological target: biotin-labeled soluble FcRn
Experiment: FcRn ELISA pH 6.0

| FcRn pH6.0 (% of wild type) | Substance |
| --- | --- |
| 437 | anti-CD20 IgG1 Q311I (antibody) |
| 165 | anti-CD20 IgG1 Q311K (antibody) |
| 186 | anti-CD20 IgG1 Q311L (antibody) |
| 387 | anti-CD20 IgG1 Q311M (antibody) |
| 54 | anti-CD20 IgG1 Q311N (antibody) |
| 89 | anti-CD20 IgG1 Q311P (antibody) |
| 14 | anti-CD20 IgG1 Q311R (antibody) |
| 97 | anti-CD20 IgG1 Q311S (antibody) |
| 131 | anti-CD20 IgG1 Q311T (antibody) |
| 558 | anti-CD20 IgG1 Q311V (antibody) |
| 215 | anti-CD20 IgG1 Q311W (antibody) |
| 94 | anti-CD20 IgG1 Q311Y (antibody) |
| 115 | anti-CD20 IgG1 Q386K (antibody) |
| 98 | anti-CD20 IgG1 Q438G (antibody) |
| 169 | anti-CD20 IgG1 Q438K (antibody) |
| 200 | anti-CD20 IgG1 Q438L (antibody) |
| 126 | anti-CD20 IgG1 Q438T (antibody) |
| 164 | anti-CD20 IgG1 Q438W (antibody) |
| 41 | anti-CD20 IgG1 R255K (antibody) |
| 27 | anti-CD20 IgG1 R255N (antibody) |
| 85 | anti-CD20 IgG1 R292A (antibody) |
| 65 | anti-CD20 IgG1 R292E (antibody) |
| 64 | anti-CD20 IgG1 R292F (antibody) |
| 60 | anti-CD20 IgG1 R292G (antibody) |
| 56 | anti-CD20 IgG1 R292I (antibody) |
| 68 | anti-CD20 IgG1 R292L (antibody) |

| FcRn pH6.0 (% of wild type) | Substance |
| --- | --- |
| 119 | anti-CD20 IgG1 R301W (antibody) |
| 7 | anti-CD20 IgG1 S254A (antibody) |
| 7 | anti-CD20 IgG1 S254D (antibody) |
| 6 | anti-CD20 IgG1 S254E (antibody) |
| 0 | anti-CD20 IgG1 S254F (antibody) |
| 7 | anti-CD20 IgG1 S254G (antibody) |
| 0 | anti-CD20 IgG1 S254H (antibody) |
| 25 | anti-CD20 IgG1 S254I (antibody) |
| 9 | anti-CD20 IgG1 S254K (antibody) |
| 74 | anti-CD20 IgG1 S254L (antibody) |
| 0 | anti-CD20 IgG1 S254M (antibody) |
| 8 | anti-CD20 IgG1 S254N (antibody) |
| 3 | anti-CD20 IgG1 S254P (antibody) |
| 9 | anti-CD20 IgG1 S254Q (antibody) |
| 14 | anti-CD20 IgG1 S254R (antibody) |
| 32 | anti-CD20 IgG1 S254T (antibody) |
| 31 | anti-CD20 IgG1 S254V (antibody) |
| 0 | anti-CD20 IgG1 S254W (antibody) |
| 0 | anti-CD20 IgG1 S254Y (antibody) |
| 86 | anti-CD20 IgG1 S267G (antibody) |
| 86 | anti-CD20 IgG1 S267H (antibody) |
| 83 | anti-CD20 IgG1 S267I (antibody) |
| 102 | anti-CD20 IgG1 S267K (antibody) |
| 101 | anti-CD20 IgG1 S304E (antibody) |
| 595 | anti-CD20 IgG1 S375R (antibody) |
| 97 | anti-CD20 IgG1 S424H (antibody) |

| FcRn pH6.0 (% of wild type) | Substance |
| --- | --- |
| 60 | anti-CD20 IgG1 S424M (antibody) |
| 57 | anti-CD20 IgG1 S424V (antibody) |
| 65 | anti-CD20 IgG1 S426D (antibody) |
| 117 | anti-CD20 IgG1 S426L (antibody) |
| 82 | anti-CD20 IgG1 S440A (antibody) |
| 72 | anti-CD20 IgG1 S440D (antibody) |
| 73 | anti-CD20 IgG1 S440E (antibody) |
| 87 | anti-CD20 IgG1 S440F (antibody) |
| 101 | anti-CD20 IgG1 S440G (antibody) |
| 110 | anti-CD20 IgG1 S440H (antibody) |
| 96 | anti-CD20 IgG1 S440I (antibody) |
| 132 | anti-CD20 IgG1 S440K (antibody) |
| 126 | anti-CD20 IgG1 S440L (antibody) |
| 80 | anti-CD20 IgG1 S440M (antibody) |
| 82 | anti-CD20 IgG1 S440N (antibody) |
| 81 | anti-CD20 IgG1 S440Q (antibody) |
| 88 | anti-CD20 IgG1 S440R (antibody) |
| 71 | anti-CD20 IgG1 S440T (antibody) |
| 98 | anti-CD20 IgG1 S440V (antibody) |
| 85 | anti-CD20 IgG1 S440W (antibody) |
| 100 | anti-CD20 IgG1 S440Y (antibody) |
| 138 | anti-CD20 IgG1 S442K (antibody) |
| 96 | anti-CD20 IgG1 T250K (antibody) |
| 165 | anti-CD20 IgG1 T250M (antibody) |
| 62 | anti-CD20 IgG1 T250R (antibody) |
| 160 | anti-CD20 IgG1 T256A (antibody) |

| FcRn pH6.0 (% of wild type) | Substance |
| --- | --- |
| 544 | anti-CD20 IgG1 T256D (antibody) |
| 339 | anti-CD20 IgG1 T256E (antibody) |
| 5 | anti-CD20 IgG1 T256F (antibody) |
| 162 | anti-CD20 IgG1 T256G (antibody) |
| 26 | anti-CD20 IgG1 T256H (antibody) |
| 72 | anti-CD20 IgG1 T256I (antibody) |
| 31 | anti-CD20 IgG1 T256K (antibody) |
| 78 | anti-CD20 IgG1 T256L (antibody) |
| 35 | anti-CD20 IgG1 T256M (antibody) |
| 229 | anti-CD20 IgG1 T256N (antibody) |
| 190 | anti-CD20 IgG1 T256P (antibody) |
| 64 | anti-CD20 IgG1 T256Q (antibody) |
| 33 | anti-CD20 IgG1 T256R (antibody) |
| 169 | anti-CD20 IgG1 T256S (antibody) |
| 114 | anti-CD20 IgG1 T256V (antibody) |
| 14 | anti-CD20 IgG1 T256W (antibody) |
| 68 | anti-CD20 IgG1 T256Y (antibody) |
| 124 | anti-CD20 IgG1 T260S (antibody) |
| 233 | anti-CD20 IgG1 T307A (antibody) |
| 492 | anti-CD20 IgG1 T307E (antibody) |
| 302 | anti-CD20 IgG1 T307M (antibody) |
| 525 | anti-CD20 IgG1 V262L (antibody) |
| 78 | anti-CD20 IgG1 V264S (antibody) |
| 214 | anti-CD20 IgG1 V279A (antibody) |
| 367 | anti-CD20 IgG1 V279D (antibody) |
| 113 | anti-CD20 IgG1 V279F (antibody) |

| FcRn pH6.0 (% of wild type) | Substance |
| --- | --- |
| 256 | anti-CD20 IgG1 V279G (antibody) |
| 173 | anti-CD20 IgG1 V279H (antibody) |
| 83 | anti-CD20 IgG1 V279I (antibody) |
| 79 | anti-CD20 IgG1 V279K (antibody) |
| 78 | anti-CD20 IgG1 V279L (antibody) |
| 122 | anti-CD20 IgG1 V279M (antibody) |
| 204 | anti-CD20 IgG1 V279N (antibody) |
| 181 | anti-CD20 IgG1 V279Q (antibody) |
| 130 | anti-CD20 IgG1 V279R (antibody) |
| 242 | anti-CD20 IgG1 V279S (antibody) |
| 265 | anti-CD20 IgG1 V279T (antibody) |
| 162 | anti-CD20 IgG1 V279W (antibody) |
| 139 | anti-CD20 IgG1 V279Y (antibody) |
| 74 | anti-CD20 IgG1 V379N (antibody) |
| 85 | anti-CD20 IgG1 V379Q (antibody) |
| 86 | anti-CD20 IgG1 V379S (antibody) |
| 109 | anti-CD20 IgG1 V379T (antibody) |
| 192 | anti-CD20 IgG1 V427N (antibody) |
| 33 | anti-CD20 IgG1 Y373A (antibody) |
| 74 | anti-CD20 IgG1 Y373D (antibody) |
| 106 | anti-CD20 IgG1 Y373E (antibody) |
| 110 | anti-CD20 IgG1 Y373F (antibody) |
| 38 | anti-CD20 IgG1 Y373G (antibody) |
| 100 | anti-CD20 IgG1 Y373H (antibody) |
